Key:
[1] = molecular target: T1, human full-length Sirt1 (fl-Sirt1) (Homo sapiens, UniProt Q96EB6); test: FdL deacetylation assay, fl-Sirt1; type: biochemical; conditions: Figure 1D,E; compared with Sirt2 and Sirt3
T1 construct: human full-length Sirt1 (fl-Sirt1) in pET-15b; made in house; host or cells: E. coli CodonPlus(DE3)
T1 sequence (Q96EB6 1-747): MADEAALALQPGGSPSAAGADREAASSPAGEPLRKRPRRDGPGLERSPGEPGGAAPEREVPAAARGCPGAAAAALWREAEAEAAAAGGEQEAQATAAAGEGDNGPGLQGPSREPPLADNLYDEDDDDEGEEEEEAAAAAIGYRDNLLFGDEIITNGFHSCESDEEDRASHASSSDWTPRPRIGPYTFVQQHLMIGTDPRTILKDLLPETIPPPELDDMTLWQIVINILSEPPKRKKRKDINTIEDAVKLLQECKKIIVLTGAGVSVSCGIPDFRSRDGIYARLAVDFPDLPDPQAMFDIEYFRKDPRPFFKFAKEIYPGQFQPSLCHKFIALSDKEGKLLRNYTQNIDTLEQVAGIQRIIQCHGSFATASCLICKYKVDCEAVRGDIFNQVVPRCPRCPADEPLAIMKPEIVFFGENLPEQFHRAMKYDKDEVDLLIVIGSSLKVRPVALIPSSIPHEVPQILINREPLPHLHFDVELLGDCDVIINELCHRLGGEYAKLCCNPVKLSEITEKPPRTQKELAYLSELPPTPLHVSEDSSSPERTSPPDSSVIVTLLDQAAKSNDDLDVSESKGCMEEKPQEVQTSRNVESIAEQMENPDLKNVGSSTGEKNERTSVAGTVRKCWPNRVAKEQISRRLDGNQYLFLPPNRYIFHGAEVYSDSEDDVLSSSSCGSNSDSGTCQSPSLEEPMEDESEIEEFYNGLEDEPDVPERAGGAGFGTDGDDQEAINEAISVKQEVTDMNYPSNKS
Description: (§1) A human mini-Sirt1 construct (aa 183-505-(GGGS)2-641-665), as described in [27], was generated in a modified pET-19b with a TEV cleavage site. This construct and human full-length Sirt1 (fl-Sirt1) in pET-15b, Sirt1-(183-664) and Sirt1-(214-664) in pET-15b, mini-Sirt1-∆SBD (aa 214-505-(GGGS)2-641-665) and mini-Sirt1-∆ESA (aa 183–505) in a modified pET-19b with TEV cleavage site, Sirt2-(43-356) in a modified pET-19b with a His6-Sumo tag, Sirt3-(93-399) in a modified pET-32a with Trx-His6 tag and TEV cleavage site, hSirt3-(118-399) in pVFT3S (Sungkyunkwan University, Seoul, Republic of Korea) with His6-Trx tag and TEV cleavage site, Sirt5-(34-302) in pET-151/D-TOPO, and Sirt6-(1-355) in pQE80L.1 were purified as described. Shortly, proteins were expressed at 20 °C (mini-Sirt1 constructs at 16 °C) in E. coli CodonPlus(DE3), cell lysates were cleared by centrifugation, and proteins were purified via affinity chromatography using a nickel NTA column. After digestion with thrombin or TEV protease, proteins were re-run over the nickel NTA column, pooled, and concentrated. The samples were, then, subjected either directly to size exclusion chromatography in 50 mM Tris/HCl, pH 8.0, 150 mM NaCl, 1 mM TCEP, or to an ion exchange chromatography followed by size exclusion chromatography. […]

[2] = molecular target: T2, human mini-Sirt1 (aa 183-505-(GGGS)2-641-665) (Homo sapiens, UniProt Q96EB6); test: FdL assay, mini-Sirt1; type: biochemical; conditions: Michaelis–Menten
T2 construct: aa 183-505-(GGGS)2-641-665; made in house; host or cells: E. coli CodonPlus(DE3)
T2 sequence (Q96EB6 with tags, fused parts or gaps limits assumed): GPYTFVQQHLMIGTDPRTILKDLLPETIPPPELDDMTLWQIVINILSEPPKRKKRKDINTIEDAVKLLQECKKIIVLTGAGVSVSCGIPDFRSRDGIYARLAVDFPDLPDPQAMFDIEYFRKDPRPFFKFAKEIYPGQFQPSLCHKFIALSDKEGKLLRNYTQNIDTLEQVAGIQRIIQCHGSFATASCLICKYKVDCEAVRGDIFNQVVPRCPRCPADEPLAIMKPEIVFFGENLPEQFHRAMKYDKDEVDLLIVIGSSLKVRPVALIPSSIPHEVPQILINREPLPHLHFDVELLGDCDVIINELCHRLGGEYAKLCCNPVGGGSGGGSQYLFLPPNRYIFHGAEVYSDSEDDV
Description: as §1

B1: Tat-Cys^−: Recombinant 86-residue HIV1 Zaire 2 Tat with C22S, C25A, C27A, C30S, C31A, C34S, and C37A (protein)
chain: MDPVDPNIEPWNHPGSQPKTASNRAHAKKSAYHSQVAFITKGLGISYGRKKRRQRRRPSQGGQTHQDPIPKQPSSQPRGDPTGPKE
[1]
  relative isoform inhibition, Sirt1 vs other isoforms: slightly more potent inhibition of this isoform
[2]; FdL-1, mini-Sirt1, increasing Tat-Cys^−, n = 3
  inhibition mode vs acetylated substrate peptide, Sirt1: competitive with the acetylated substrate peptide
[2]; NAD^+, mini-Sirt1, increasing Tat-Cys^−, n = 3–6
  inhibition mode vs NAD^+, Sirt1: non-competitive with NAD^+

From PMC10144703, “Molecular Mechanism of Sirtuin 1 Inhibition by Human Immunodeficiency Virus 1 Tat Protein” (Life, 2023)
